From EP1876240B1 (MOCHIDA PHARMACEUTICAL CO., LTD., dated 2012)
Numbering of substitutions follows the chain as printed. One block for each binder: values may come before it.

Tests used:
[1] = biological target: T1, human GPVI extracellular region-human Fc fusion protein (hGPVI-hFc) (human); assay: SPR (BIACORE3000) as in Example 5
T1 construct: expressed in COS-1, Protein A purified; also called GPVI-HHH-hFc; hGPVIHHH-hFc

[2] = biological target: cynomolgus monkey D1D2-human D3 chimeric GPVI-human Fc fusion protein (GPVI-FFH-hFc) (cynomolgus monkey (D1, D2) and human …); assay: SPR (BIACORE3000), GPVI-hFc coupled to CM5 chip, antibody 1.25-40 nM, bivalent analyte fit
[3] = biological target: T1, human GPVI extracellular region-human …; assay: as above
Target sequence in this assay (chain, as listed by the source limits assumed): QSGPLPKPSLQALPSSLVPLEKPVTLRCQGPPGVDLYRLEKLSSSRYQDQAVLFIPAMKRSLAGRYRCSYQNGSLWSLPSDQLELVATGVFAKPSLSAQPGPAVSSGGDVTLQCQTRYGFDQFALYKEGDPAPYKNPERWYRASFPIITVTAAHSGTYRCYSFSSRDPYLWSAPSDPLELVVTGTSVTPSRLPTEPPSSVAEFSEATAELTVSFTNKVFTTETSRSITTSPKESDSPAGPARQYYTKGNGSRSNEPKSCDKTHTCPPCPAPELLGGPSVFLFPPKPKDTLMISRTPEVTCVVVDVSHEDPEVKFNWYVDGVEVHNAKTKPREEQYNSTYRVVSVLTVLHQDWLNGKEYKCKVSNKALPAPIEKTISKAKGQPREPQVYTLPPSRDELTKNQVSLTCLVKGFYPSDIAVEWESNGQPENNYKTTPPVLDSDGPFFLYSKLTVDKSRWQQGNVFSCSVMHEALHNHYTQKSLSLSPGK

GPVI on human platelets = biological target: T2, GPVI on human platelets (human, UniProt Q9HCN6 21-339); assay: homologous competitive binding of [125I]-labeled and non-labeled antibody on washed human platelets (n=3, mean±S.E.)
T2 construct: whole, on cells
T2 sequence (looked up): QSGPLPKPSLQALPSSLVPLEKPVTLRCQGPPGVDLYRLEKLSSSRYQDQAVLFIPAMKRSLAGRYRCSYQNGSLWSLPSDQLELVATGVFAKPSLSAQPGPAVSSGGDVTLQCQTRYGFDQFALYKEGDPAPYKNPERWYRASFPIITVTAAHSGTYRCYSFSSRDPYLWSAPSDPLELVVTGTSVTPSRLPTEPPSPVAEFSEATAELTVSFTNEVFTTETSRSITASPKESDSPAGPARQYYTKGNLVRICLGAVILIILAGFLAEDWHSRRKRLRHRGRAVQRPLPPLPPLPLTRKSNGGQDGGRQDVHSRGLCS

[4] = biological target: T3, GPVI on cynomolgus monkey platelets (cynomolgus monkey, UniProt A0A2K5VXN2 21-318); assay: homologous competitive binding of [125I]-labeled and non-labeled antibody on washed cynomolgus platelets (n=3, mean±S.E.)
T3 construct: whole, on cells; also called simian platelets
T3 sequence (A0A2K5VXN2 entry or part of it): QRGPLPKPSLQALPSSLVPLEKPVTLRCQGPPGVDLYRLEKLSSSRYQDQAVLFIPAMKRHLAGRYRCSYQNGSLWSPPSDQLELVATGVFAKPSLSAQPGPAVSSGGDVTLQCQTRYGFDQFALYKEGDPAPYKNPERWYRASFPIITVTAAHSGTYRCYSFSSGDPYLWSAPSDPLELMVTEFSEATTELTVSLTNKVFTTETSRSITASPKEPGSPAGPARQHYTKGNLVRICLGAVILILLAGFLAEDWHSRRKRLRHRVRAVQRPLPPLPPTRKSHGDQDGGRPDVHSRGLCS

Sequence of cynomolgus monkey D1D2-human D3 chimeric GPVI-human Fc fusion protein (GPVI-FFH-hFc) (cynomolgus monkey (D1, D2) and human …) (chain, as listed by the source mutant limits assumed): as the sequence (chain, as listed by the source limits assumed) above, with S2R, S61H, L78P, R166G, V181M, P442S counted along it

B3: F1232-7-1 (antibody, V domains shown)
VH: VQLQQSGPELVRPGESVKISCKGSGYTFTDYAIHWVKLSHAKSLEWIGVISIYYDDTNYNQKFKGKATMTVDKSSSTAYMELARLTSEDSAIYYCARRRDSSGPYAMDYWGQGTSVTVSS
VL: DIVLTQSPASLAVSLGQRATISCRASESVDSYGNSFMHWYQQKPGQPPKLLIYRASNLESGIPARFSGSGSRTDFTLTINPVEADDVATYYCQQSNEDPYTFGGGTKLEIKR
notes: mouse monoclonal antibody from hybridoma
Kd [2]: 343 nM

B4: cF1232-37-2/CHO (antibody, V domains shown)
VH: B3 VH with M80L
VL: B3 VL
notes: also called cF1232-37-2 expressed by CHO cells
Kd (GPVI on human platelets): 17 nM
Kd [4]: 20 nM

B5: F1201-18 (antibody, V domains shown)
VH: VQLVESGGGLVKPGGSLKLSCAASGFTFSSYAMSWVRQTPEKRLEWVAIISSGGSYTYYPDSVKGRFTISRDNAKNTLYLHMSSLRSEDTAMYYCARQGGGYFDYWGQGTTLTVSS
VL: B3 VL with L58V, Y100P, G104A, I110L
notes: as for B3
Kd [3]: 1.16 nM

B6: F1249-3-2 (antibody, V domains shown)
VH: EVQLVESGGGLVKPGGSLKLSCAASGFTFSSYGMSWVRQTPDKRLEWVATISSGGSYTYYSDSVKGRFTISRDNAKNNLYLQLSSLKSQDTAIYYCARDSGYFDYWGQGTTLTVSS
VL: B3 VL with D1N, R54L, I62V, N80D, V87A, S95N, Y100R
KD (Relative value) against F1232-37-2 [1]: 1.59 relative to KD of F1232-37-2

B7: F1232-24-1 (antibody, V domains shown)
VH: VQLQQSGAELVRPGVSVKISCKGSGYTFTDYAMHWVKQSHAKSLEWIGVISTYYGDASYNQKFKGKATMTVDKSSSTAYMELARLTSEDSAIYYCARSYDYDPWFAYWGQGTLVTVSA
VL: B3 VL with S31N, N34I, A84T, E97K, Y100L, G104A, I110L
notes: as for B3
Kd [2]: 0.71 nM
Kd [3]: 0.25 nM

Other lines, results leading:

KD (Relative value) against F1232-37-2 [1]: 1 relative to KD of F1232-37-2
Kd [2]: 1 nM
Kd [3]: 0.403 nM
B1: F1232-37-2 (antibody, V domains shown)
VH: B3 VH with M80L
VL: B3 VL
notes: mouse monoclonal antibody from hybridoma; also called F1232-37-2 (whole antibody)

Kd [2]: 365 nM
Kd [3]: 1.65 nM
B2: F1232-18-3 (antibody, V domains shown)
VH: VMLVESGGGLVKPGGSLKLSCAASGFTFSSYAMSWVRQTPEKRLEWVATISSGGSYTYYPDSVKGRFTISRDNAKNTLYLQMSSLRSADTAMYYCARDYGYFDYWGQGTTLTVSS
VL: B3 VL with S31N, N34I, I52F, A84T, E97T, Y100R
notes: as for B3

Kd [2]: 0.177 nM
Kd [3]: 0.522 nM
B8: F1232-17-1 (antibody, V domains shown)
VH: VQLVESGGDLVKPGGSLKLSCAASGFTFSSYGMSWVRQTPDKRLEWVATISSGGSYTYYPDNVKGRFTISRDNAKNTLYLQMSSLNSEDTAMYYCARQVYYFGSCDYWGQGTTLTVSS
VL: B3 VL with S31N, N34I, A84T, E97K, Y100W
notes: as for B3
